# “Also recorded” adds a separate entry of the source.
# T1: S100b (Homo sapiens, UniProt P04271)
# T1 sequence (P04271 1-92): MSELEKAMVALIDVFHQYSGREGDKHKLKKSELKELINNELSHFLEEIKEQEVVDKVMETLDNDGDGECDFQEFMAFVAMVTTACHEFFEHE
# Experiments:
# [1] = system: Zucker diabetic rats, balloon injury of left common carotid artery; assay: Diabetic rat model of restenosis (balloon injury of left common carotid artery); assay type: in vivo; conditions: for Intimal area / Medial area: IP, 21 days, mean±SD
# Experimental: For example, fusion proteins of the present invention comprising a RAGE ligand binding site have been used in the treatment of diabetes related pathology. […] Use of the RAGE fusion proteins in the treatment of diabetes related pathology is illustrated in Table 1.
# In these experiments, balloon injury of left common carotid artery was performed in Zucker diabetic and nondiabetic rats using standard procedure. […] A maintenance dose was delivered every other day until day 7 after injury (i.e., at day 1, 3, 5 and 7 after injury). The maintenance dose was high=1 mg/animal for one group, or low=0.3 mg/animal for the second group. To measure vascular smooth muscle cell (VSMC) proliferation, animals were sacrificed at 4 days and 21 days after injury.
# For the measurement of cell proliferation, 4 day animals received intraperitoneal injection of bromodeoxyuridine (BrDdU) 50 mg/kg at 18, 12, and 2 hours before euthanasia. After sacrifice, the entire left and right carotid arteries were harvested. Specimens were stored in Histochoice for at least 24 hours before embedding. Assessment of VSMC proliferation was performed using mouse anti-BrdU monoclonal antibody. A fluorescence labeled goat anti-mouse secondary antibody was applied. The number of BrdU-positive nuclei per section were counted by two observers blinded to the treatment regimens.
# The remaining rats were sacrificed at 21 days for morphometric analysis. Morphometric analyses were performed by an observer blinded to the study groups, using computerized digital microscopic planimetry software Image-Pro Plus on serial sections, ([…]) carotid arteries stained by Van Gieson staining All data were expressed as mean±SD. Statistical analysis was performed with use of SPSS software. Continuous variables were compared using unpaired t tests. A values of P≦0.05 was considered to be statistically significant.
# [2] = system: Fc receptor; assay: Fc receptor activation: TNF-α secretion from THP-1 cells; conditions: well precoated with 10 ug/well heat aggregated protein, 24 hours, FIG. 12
# Experimental: Fc receptor activation was measured by measuring TNF-α secretion from THP-1 cells that express the Fc receptor. […] Fc stimulation results in TNF-α secretion. The amount of TNF-α was measured by an Enzyme Linked Immunoabsorbent Assay (ELISA).
# Thus, in this assay, the myeloid cell line, THP-1 (ATTC #TIB-202) was maintained in RPMI-1640 media supplemented with 10% fetal bovine serum per ATCC instructions. […] The amount of TNF-alpha secreted by the THP-1 cells was measured in supernatants collected from 24 hours cultures of cells in the treated wells using a commercially available TNF ELISA kit (R&D Systems, Minneapolis, Minn. #DTA00C) per instructions.
# [3] = target: T1, S100b; assay: In vitro ligand binding assay (ELISA), immobilized S100b; conditions: ligand 5 micrograms per well; dilutions of initial fusion protein solution; FIG. 7
# Experimental: For example, the fusion protein may be used in a binding assay to identify potential ligands that bind to the non-immunoglobulin protein. In one example embodiment of such a binding assay, a known ligand may coated onto a solid substrate (e.g., Maxisorb plates) at a biologically relevant concentration (e.g., about 5 micrograms per well), where each well contains a total volume of about 100 microliters (μL). The plates may be incubated at 4° C. overnight to allow the ligand to bind to the substrate. Alternatively, shorter incubation periods at higher temperature (e.g., room temperature) may be used. After a period of time to allow for the ligand to bind to the substrate, the assay wells may be aspirated and a blocking buffer (e.g., 1% BSA in 50 mM imidizole buffer, pH 7.2) may be added to block nonspecific binding. […] The fusion protein bound to the immobilized ligand may be detected in a variety of ways. […] The bound complex may be detected by adding a substrate for the secondary antibody complex, e.g., the alkaline phosphatase substrate, para-nitrophenylphosphate (PNPP), and measuring conversion of PNPP to para-nitrophenol (PNP) as an increase in absorbance at 405 nm. […] In the absence of ligand (i.e., coating with only BSA) there was no increase in absorbance. The binding assay of the present invention may be used to quantify ligand binding. […]
# [4] = Pharmacokinetic profile of TTP-4000 after IV injection; assay type: in vivo, monkeys; conditions: single IV bolus 5 mg/kg; plasma; once TTP-4000 has saturated its ligands; 2 animals; FIG. 11
# Experimental: Following collection, the tubes were placed on wet ice (maximum 30 minutes) until centrifugation under refrigeration (at 2 to 8° C.) at 1500×g for 15 minutes. Each harvested plasma sample was then stored frozen (−70° C.±10° C.) until assayed for RAGE polypeptide using an ELISA at various time-points following the injection, as described in Example 6.
# In FIG. 11 each curve represents a different animal under the same experimental conditions.
# Initially, 50 uL of the RAGE specific monoclonal antibody 1HB1011 at a concentration of 10 ug/mL in 1×PBS pH 7.3 is coated on plates via overnight incubation. When ready for use, plates are washed three times with 300 uL of 1× Imidazole-Tween wash buffer and blocked with 1% BSA. […] The samples are allowed to incubate at room temperature for one hour. After incubation, the plates are plates are washed three times. A Goat Anti-human IgG1 1 (Sigma A3312) AP conjugate in 1×PBS with 1% BSA is added and allowed to incubate at room temperature for 1 hour. The plates are washed three times. Color was elucidated with paranitrophenylphosphate.
# [5] = High dose 1.0 mg/animal qod × 4, loading dose 3 mg/animal
# [6] = Low dose 0.3 mg/animal qod × 4, loading dose 3 mg/animal
molecule,measurement,setting,value
"TTP-4000: RAGE fusion protein: V and C1 domains of human RAGE (amino acids 1-251) linked to hinge-less CH2 and CH3 of human IgG1; SEQ ID NO: 16/18 (protein, synthetic four domain RAGE-Fc IgG fusion protein; synthetic four domain RAGE-Fc IgG fusion protein having signal sequence removed) chain 1: MAAGTAVGAWVLVLSLWGAVVGAQNITARIGEPLVLKCKGAPKKPPQRLEWKLNTGRTEAWKVLSPQGGGPWDSVARVLPNGSLFLPAVGIQDEGIFRCQAMNRNGKETKSNYRVRVYQIPGKPEIVDSASELTAGVPNKVGTCVSEGSYPAGTLSWHLDGKPLVPNEKGVSVKEQTRRHPETGLFTLQSELMVTPARGGDPRPTFSCSFSPGLPRHRALRTAPIQPRVWEPVPLEEVQLVVEPEGGAVAPPSVFLFPPKPKDTLMISRTPEVTCVVVDVSHEDPEVKFNWYVDGVEVHNAKTKPREEQYNSTYRVVSVLTVLHQDWLNGKEYKCKVSNKALPAPIEKTISKAKGQPREPQVYTLPPSRDELTKNQVSLTCLVKGFYPSDIAVEWESNGQPENNYKTTPPVLDSDGSFFLYSKLTVDKSRWQQGNVFSCSVMHEALHNHYTQKSLSLSPGK chain 2: ENITARIGEPLVLKCKGAPKKPPQRLEWKLNTGRTEAWKVLSPQGGGPWDSVARVLPNGSLFLPAVGIQDEGIFRCQAMNRNGKETKSNYRVRVYQIPGKPEIVDSASELTAGVPNKVGTCVSEGSYPAGTLSWHLDGKPLVPNEKGVSVKEQTRRHPETGLFTLQSELMVTPARGGDPRPTFSCSFSPGLPRHRALRTAPIQPRVWEPVPLEEVQLVVEPEGGAVAPPSVFLFPPKPKDTLMISRTPEVTCVVVDVSHEDPEVKFNWYVDGVEVHNAKTKPREEQYNSTYRVVSVLTVLHQDWLNGKEYKCKVSNKALPAPIEKTISKAKGQPREPQVYTLPPSRDELTKNQVSLTCLVKGFYPSDIAVEWESNGQPENNYKTTPPVLDSDGSFFLYSKLTVDKSRWQQGNVFSCSVMHEALHNHYTQKSLSLSPGK","vascular smooth muscle cell proliferation (BrdU-positive nuclei), in words","[1]; 4 days after injury, dose-responsive",significantly reduced
same,Intimal area,[1]; [5],0.16 ± 0.02 mm^2
same,Medial area,[1]; [5],0.11 ± 0.01 mm^2
same,Intimal area,[1]; [6],0.18 ± 0.04 mm^2
same,Medial area,[1]; [6],0.11 ± 0.02 mm^2
same,TNF generated (Fc receptor activation),[2],less than 2 ng/well
same,binding to immobilized S100b (increase in absorbance at 405 nm),[3],able to bind; also recorded: specifically interact
same,terminal half-life,[4],greater than 300 hours
